Consider eleven molecules from patent US20120172285A1 (Dana-Farber, published 2012).

Bridges are numbered along the chain shown (N, C = ends). Where no end group is shown, it is not given here. [ ]: non-standard residue; d: D form. The star is where a group is joined. FITC = O=C1OC2(c3ccc(O)cc3Oc3cc(O)ccc32)c2ccc(NC(=S)*)cc21; S5 = C=CCCC[C@](C)(N)C(=O)O; Nle = CCCC[C@H](N)C(=O)O

The target of experiment [1] is recombinant human MCL-1ΔNΔC (amino acids 172-320) (human) (UniProt Q07820). The experiment can be described thus: fluorescence polarization (FPA), FITC-SAHB with recombinant anti-apoptotic protein [lower table].
recombinant human MCL-1ΔNΔC (amino acids 172-320) (human), sequence (Q07820 172-320 limits assumed, stated change not applied): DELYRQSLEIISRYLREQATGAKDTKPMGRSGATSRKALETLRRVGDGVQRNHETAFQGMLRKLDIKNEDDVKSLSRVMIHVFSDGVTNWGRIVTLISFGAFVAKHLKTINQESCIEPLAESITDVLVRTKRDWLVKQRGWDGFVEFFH
Experiment [2] addresses recombinant BCL-XLΔC (UniProt Q07817). The description is as above.
Experiment [3] has as its target recombinant BFL-1/A1ΔC (UniProt Q16548). Described as above.
Experiment [4] concerns the target recombinant BCL-wΔC (UniProt Q92843). The experiment is described as above.
Experiment [5] concerns the target recombinant human MCL-1ΔNΔC (amino acids 172-320) (human) (UniProt Q07820). The experiment can be described thus: fluorescence polarization (FPA), FITC-SAHB, dilution series of MCL-1ΔNΔC [top panel].
Experiment [6] has the same target. The experiment can be described thus: FPA, FITC-SAHB against MCL-1ΔNΔC.
Experiment [7] deals with recombinant BFL-1/A1ΔC (UniProt Q16548). The experiment can be described thus: fluorescence polarization (FPA), FITC-SAHB with recombinant protein; axis Concentration [log(pM)] [left panel].
recombinant BFL-1/A1ΔC, sequence (Q16548 1-153, stated change not applied): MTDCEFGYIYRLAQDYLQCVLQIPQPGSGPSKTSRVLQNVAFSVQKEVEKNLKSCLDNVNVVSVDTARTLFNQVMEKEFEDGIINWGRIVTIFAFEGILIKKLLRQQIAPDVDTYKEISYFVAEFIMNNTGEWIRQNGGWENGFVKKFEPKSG
Experiment [8] has as its target recombinant human MCL-1ΔNΔC (amino acids 172-320) (human) (UniProt Q07820). The experiment can be described thus: fluorescence polarization (FPA), FITC-SAHB with recombinant anti-apoptotic protein [upper table]. Background: In fluorescence polarisation assays a small probe gives low polarisation when free and higher when bound to something large.
The target of experiment [9] is recombinant BCL-XLΔC (UniProt Q07817). The experiment is described as above.
recombinant BCL-XLΔC, sequence (Q07817 1-212, stated change not applied): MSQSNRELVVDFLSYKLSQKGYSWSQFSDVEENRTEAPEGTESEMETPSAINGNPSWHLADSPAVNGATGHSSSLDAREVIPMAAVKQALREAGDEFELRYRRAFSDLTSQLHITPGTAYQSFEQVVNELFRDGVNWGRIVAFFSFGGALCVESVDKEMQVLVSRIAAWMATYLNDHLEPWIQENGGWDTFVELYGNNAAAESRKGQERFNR
Experiment [10] concerns the target recombinant BFL-1/A1ΔC (UniProt Q16548). The description is as above.
Experiment [11] addresses recombinant BCL-wΔC (UniProt Q92843). Described as above.
Experiment [12] deals with recombinant human MCL-1ΔNΔC (amino acids 172-320) (human) (UniProt Q07820). The experiment can be described thus: fluorescence polarization (FPA), FITC-NOXA SAHBB, dilution series of the protein [left graph].
The target in experiment [13] is T1, recombinant human MCL-1ΔNΔC (amino acids 172-320) (human, UniProt Q07820 172-320).
T1 construct: also called rMCL-1; MCL-1NC
T1 sequence (Q07820 172-320 limits assumed, stated change not applied): as the sequence (Q07820 172-320 limits assumed, stated change not applied) above
The experiment can be described thus: fluorescence polarization (FPA), FITC-SAHB with recombinant anti-apoptotic protein [lower table]. As for the experimental part: (§1) For direct binding experiments, dissociation constants (KD) were calculated by nonlinear regression analysis of dose-response curves using Prism software (Graphpad). For competition experiments, Ki values were determined by nonlinear regression analysis of dose-response curves using a one-site competition model.
(§2) To measure the binding activity of SAHBs for MCL-1, fluorescence polarization binding assays were performed (FIG. 8). To generate a stable MCL-1 protein suitable for such binding studies (i.e., the published full-length and carboxy-terminus deleted forms of recombinant MCL-1 degrade rapidly, rendering it difficult to maintain a homogenous solution of pure MCL-1 protein), a recombinant form of MCL-1 (rMCL-1) was produced that lacked its amino- and carboxy-terminus, “MCL-1ΔNΔC”, but retained the critical BCL-2 homology domains and adjoining protein sequences that give rise to the BH3-binding cleft (SEQ ID NO: 72). The pGEX-4T vector was used to produce the GST-fusion protein of MCL-1ΔNΔC and purification was achieved by glutathione sepharose chromatography, affinity tag cleavage with thrombin at room temperature overnight, followed by size exclusion chromatography. Serial dilutions of MCL-1ΔNΔC in 50 mM Tris pH 8, 150 mM NaCl were incubated with a fixed concentration of FITC-derivatized SAHB (10-50 nM) until equilibrium was reached. Fluorescence polarization was measured on a BMG POLARstar Optima or Spectramax and dissociation constants determined by nonlinear regression analysis using Prism software 4.0 (Graphpad) (FIG. 8).

The target in experiment [14] is T1, recombinant human MCL-1ΔNΔC (amino …). The experiment can be described thus: fluorescence polarization (FPA), FITC-SAHB, dilution series of MCL-1ΔNΔC [top panel]. As for the experimental part: as §1
(§3) To measure the binding activity of SAHBs for MCL-1, fluorescence polarization binding assays were performed (FIG. 8). To generate a stable MCL-1 protein suitable for such binding studies (i.e., the published full-length and carboxy-terminus deleted forms of recombinant MCL-1 degrade rapidly, rendering it difficult to maintain a homogenous solution of pure MCL-1 protein), a recombinant form of MCL-1 (rMCL-1) was produced that lacked its amino- and carboxy-terminus, “MCL-1ΔNΔC”, but retained the critical BCL-2 homology domains and adjoining protein sequences that give rise to the BH3-binding cleft (SEQ ID NO: 72). The pGEX-4T vector was used to produce the GST-fusion protein of MCL-1ΔNΔC and purification was achieved by glutathione sepharose chromatography, affinity tag cleavage with thrombin at room temperature overnight, followed by size exclusion chromatography. […] Fluorescence polarization was measured on a BMG POLARstar Optima or Spectramax and dissociation constants determined by nonlinear regression analysis using Prism software 4.0 (Graphpad) (FIG. 8).

For experiment [15] the target is unchanged. The experiment can be described thus: FPA, FITC-SAHB against MCL-1ΔNΔC. As for the experimental part: as §1
The native alpha-helical structure of BH3 domains was reinforced by incorporating non-natural amino acids containing olefin tethers at the (i, i+4) positions of the non-interacting face, followed by ruthenium catalyzed olefin metathesis to yield a panel of stapled BH3 domains (FIG. 7).

For experiment [16] the target is unchanged. The experiment can be described thus: fluorescence polarization (FPA), FITC-SAHB, dilution series of MCL-1ΔNΔC [middle panel]. The procedure:
as §1, §2

Experiment [17] shares this target. The experiment can be described thus: competition FPA, FITC-BAK SAHB and MCL-1ΔNΔC with MCL-1 SAHBs as competitors. The procedure:
(§4) Briefly, FITC-SAHB (50 nM) was added to serial dilutions of FPLC-purified recombinant protein in binding buffer (50 mM Tris, 100 mM NaCl, pH 8.0). […] Multiwell plates were incubated in the dark at room temperature until equilibrium was reached and fluorescence polarization (mP units) was measured by microplate reader (SpectraMax, Molecular Devices). For direct binding experiments, dissociation constants (KD) were calculated by nonlinear regression analysis of dose-response curves using Prism software (Graphpad). For competition experiments, Ki values were determined by nonlinear regression analysis of dose-response curves using a one-site competition model.
(§5) FP (mP units) was measured at equilibrium by microplate reader (e.g., Spectramax) and Kᵢ values calculated by nonlinear regression analysis of dose-response curves using Prism software (Graphpad).

The target is the same in experiment [18]. The experiment can be described thus: competition FPA: dilution series of acetylated MCL-1 SAHB against FITC-BAK SAHB on MCL-1ΔNΔC. As for the experimental part:
as §4, §5

The target is the same in experiment [19]. The experiment can be described thus: FPA. The procedure: as §1
The alanine scan was supplemented with glutamate mutagenesis of alanine and glycine residues.

Experiment [20] has the same target. The experiment can be described thus: fluorescence polarization (FPA), FITC-SAHB with recombinant protein; axis Concentration [log(pM)] [right panel].
The target is the same in experiment [21]. The experiment can be described thus: fluorescence polarization (FPA), FITC-SAHB with recombinant anti-apoptotic protein [upper table]. As for the experimental part:
as §1, §3

recombinant BCL-wΔC, sequence (Q92843 1-164, stated change not applied): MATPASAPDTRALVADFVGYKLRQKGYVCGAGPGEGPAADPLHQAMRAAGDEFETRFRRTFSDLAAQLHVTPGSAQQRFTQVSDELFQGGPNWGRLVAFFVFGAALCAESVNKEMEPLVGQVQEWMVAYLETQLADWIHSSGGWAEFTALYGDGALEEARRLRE

For the molecule “NOXA SAHBA (stapled NOXA BH3 helix) (from UniProt Q13794) (peptide)”, the equilibrium dissociation constant (Kd) in [1] is 22 nM; in experiment [2] it was greater than 1000 nM; in experiment [3], 416 nM; in experiment [4], greater than 1000 nM; in experiment [5], 22 nM; in experiment [6], less than 50 nM.

Regarding BIM SAHB (BIM SAHBA) (peptide), the equilibrium dissociation constant (Kd) came to 18 nM in [3] and 2 nM in experiment [4]. Moreover, the EC50 (read off the curve) in experiment [7] was determined as 50 nM.

As to “NOXA SAHBB (from UniProt Q13794 19-43) (peptide)”, the Kd in experiment [8] was 109 nM; in experiment [9] it was greater than 1000 nM; in experiment [10], greater than 1000 nM; in [11] it was greater than 1000 nM; in [12] it was 110 nM.

B1: PUMA SAHB (peptide)
peptide: {FITC}-QWAREIGAQLR[S5][Nle]AD[S5]LNAQY
modifications: staple 12-16
notes: domain: BH3
For the molecule B1, the dissociation constant Kd was 14 nM in experiment [13]; 9 nM in [2]; 34 nM in experiment [3]; 18 nM in [4]; 14 nM in experiment [14]; less than 50 nM in experiment [15].

B2: BAK SAHB (peptide)
peptide: {FITC}-QVGRQLA[S5]IGD[S5]INRRYD
modifications: staple 8-12
notes: also called FITC-BAK SAHB; BAK BH3 helix
Turning to B2, the equilibrium dissociation constant (Kd) in experiment [16] is 7 nM; in experiment [13] it was 7 nM; in experiment [2] it was 15 nM; in experiment [3] it was 92 nM; in [4], 17 nM; in experiment [15] it was less than 50 nM. In addition, in experiment [17], the IC50 stood at 270 nM.

B3: BAX SAHB (peptide)
peptide: {FITC}-ASTKKLSESLK[S5]IGD[S5]LDSN
modifications: staple 12-16
notes: domain: BH3
As to B3, the equilibrium dissociation constant (Kd) was 101 nM in experiment [16]; 101 nM in experiment [13]; 15 nM in experiment [2]; 28 nM in experiment [3]; 24 nM in experiment [4]; less than 50 nM in experiment [15].

B4: BID SAHB (peptide)
peptide: {FITC}-DIIRNIARHLA[S5]VGD[S5][Nle]DRSIRR
modifications: staple 12-16
notes: domain: BH3
As to B4, the dissociation constant Kd in [13] was 50 nM; in [2], 28 nM; in experiment [3], 95 nM; in experiment [4], 54 nM; in experiment [14] it was 50 nM; in experiment [15] it was less than 50 nM.

B5: MCL-1 SAHBA (stapled MCL-1 BH3 helix, parental) (peptide)
peptide: KALETLR[S5]VGD[S5]VQRNHETAF
modifications: staple 8-12; also: N-terminal FITC or acetyl depending on assay
notes: domain: BH3; also called FITC-MCL-1 SAHBA
For the molecule B5, in [18], the Ki came to 3100 nM. Besides, the Kd in [15] is less than 50 nM.

B6: MCL-1 SAHBA V220F (peptide, UniProt Q07820 208-228, looked up)
peptide: {FITC}-KALETLR[S5]VGD[S5]FQRNHETAF
modifications: staple 8-12
notes: domain: BH3; also called V220F point mutation in MCL-1 SAHB
Turning to B6, the Kd in experiment [19] was found to be 191 nM.

B7: BIM SAHBD with Ile65 to Phe and Glu68 to Lys (MCL-1-specificity tailored BIM SAHB) (peptide)
peptide: {FITC}-IWI[S5]QEL[S5]RFGDKFNAYYAR
modifications: staple 4-8
For the molecule B7, the “EC50 (read off the curve)” value in experiment [20] is roughly 10 nM.

B8: BOK SAHB (peptide)
peptide: {FITC}-RLAEVSAVLL[S5]LGD[S5]LE[Nle]IR
modifications: staple 11-15
For the molecule B8, the equilibrium dissociation constant (Kd) in [16] was 115 nM; in experiment [21] it was 115 nM; in experiment [9], 316 nM; in experiment [10], greater than 1000 nM; in experiment [11] it was 416 nM; in experiment [15], less than 50 nM.

A word on the Kd: it is the constant that tells how readily two partners part at equilibrium. One may read the EC50 (read off the curve) as the concentration that produces a half-maximal response. As a reminder, the IC50 is the point on the concentration scale where inhibition reaches its midpoint. The term Ki denotes a dissociation constant, usually derived from enzyme kinetics or from competition with a known ligand.
